Common to all, as to assay: indirect ELISA, antigen coated, negative control
A general note: An ELISA detects its analyte on a solid surface through an enzyme-linked reagent.

The target of assay [1] is MPB70 recombinant protein (Mycobacterium bovis) (UniProt P0A669).
Assay [2] has as its target MPB83 recombinant protein (Mycobacterium bovis) (UniProt P0CAX7).
Assay [3] deals with bovine tuberculin purified protein derivative (PPDb).
The target in assay [4] is mixture of MPB70 and MPB83 recombinant proteins.
In assay [5] the target is p10 protein (ESAT-6) (Mycobacterium bovis) (UniProt P0A565).
Assay [6] deals with p22 immunogenic composition.

Results on one substance are retold here after patent EP3330286A1.

UniProt P0CAX7, sequence (P0CAX7 25-220 limits assumed): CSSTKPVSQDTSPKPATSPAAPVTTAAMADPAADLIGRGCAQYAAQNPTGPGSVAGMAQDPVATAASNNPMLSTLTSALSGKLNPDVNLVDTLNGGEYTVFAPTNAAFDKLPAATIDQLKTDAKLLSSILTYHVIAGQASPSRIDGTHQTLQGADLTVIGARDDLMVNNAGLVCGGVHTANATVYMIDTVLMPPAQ
UniProt P0A669, sequence (P0A669 31-193 limits assumed): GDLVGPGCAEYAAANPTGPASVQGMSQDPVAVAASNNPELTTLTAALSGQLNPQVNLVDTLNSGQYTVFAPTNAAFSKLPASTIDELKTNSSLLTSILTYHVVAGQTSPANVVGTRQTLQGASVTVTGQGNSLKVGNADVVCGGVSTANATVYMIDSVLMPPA
UniProt P0A565, sequence (P0A565 2-95 limits assumed): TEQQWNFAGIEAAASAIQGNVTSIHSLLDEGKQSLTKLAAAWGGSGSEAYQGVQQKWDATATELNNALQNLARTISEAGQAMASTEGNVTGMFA

In the case of Control -, the optical density in assay [1] stood at 0.08 OD; in assay [2], 0.07 OD; in assay [3], 0.06 OD; in assay [4] it was 0.07 OD; in assay [5] it was 0.06 OD; in assay [6], 0.07 OD.
